Data reported in IntAct's records for PubMed 21107322.

B1: G2/mitotic-specific cyclin cdc13 (Schizosaccharomyces pombe (strain ATCC 38366 / 972)), P10815 (parent)
chain: MTTRRLTRQHLLANTLGNNDENHPSNHIARAKSSLHSSENSLVNGKKATVSSTNVPKKRHALDDVSNFHNKEGVPLASKNTNVRHTTASVSTRRALEEKSIIPATDDEPASKKRRQPSVFNSSVPSLPQHLSTKSHSVSTHGVDAFHKDQATIPKKLKKDVDERVVSKDIPKLHRDSVESPESQDWDDLDAEDWADPLMVSEYVVDIFEYLNELEIETMPSPTYMDRQKELAWKMRGILTDWLIEVHSRFRLLPETLFLAVNIIDRFLSLRVCSLNKLQLVGIAALFIASKYEEVMCPSVQNFVYMADGGYDEEEILQAERYILRVLEFNLAYPNPMNFLRRISKADFYDIQTRTVAKYLVEIGLLDHKLLPYPPSQQCAAAMYLAREMLGRGPWNRNLVHYSGYEEYQLISVVKKMINYLQKPVQHEAFFKKYASKKFMKASLFVRDWIKKNSIPLGDDADEDYTFHKQKRIQHDMKDEEW
partner: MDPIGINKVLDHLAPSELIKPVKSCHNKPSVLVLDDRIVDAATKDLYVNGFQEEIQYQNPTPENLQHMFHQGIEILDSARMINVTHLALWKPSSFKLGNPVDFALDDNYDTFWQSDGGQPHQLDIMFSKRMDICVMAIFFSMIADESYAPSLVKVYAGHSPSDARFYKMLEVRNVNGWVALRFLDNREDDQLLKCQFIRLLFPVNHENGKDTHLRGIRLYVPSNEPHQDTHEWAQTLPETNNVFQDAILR

Variants of: B1
Settings: with apc10_yeast DOC1, P53068

effect of a mutation on the interaction | Variant
decreasing interaction | MTTRRLTRQHLLANTLGNNDENHPSNHIARAKSSLHSSENSLVNGKKATVSSTNVPKKAHAADDASAFHNKEGVPLASKNTNVRHTTASVSTRRALEEKSIIPATDDEPASKKRRQPSVFNSSVPSLPQHLSTKSHSVSTHGVDAFHKDQATIPKKLKKDVDERVVSKDIPKLHRDSVESPESQDWDDLDAEDWADPLMVSEYVVDIFEYLNELEIETMPSPTYMDRQKELAWKMRGILTDWLIEVHSRFRLLPETLFLAVNIIDRFLSLRVCSLNKLQLVGIAALFIASKYEEVMCPSVQNFVYMADGGYDEEEILQAERYILRVLEFNLAYPNPMNFLRRISKADFYDIQTRTVAKYLVEIGLLDHKLLPYPPSQQCAAAMYLAREMLGRGPWNRNLVHYSGYEEYQLISVVKKMINYLQKPVQHEAFFKKYASKKFMKASLFVRDWIKKNSIPLGDDADEDYTFHKQKRIQHDMKDEEW [R59A;L62A;V65A;N67A]
